The text below walks through data of US20260027208A1 (published 2026).

Assay [1] deals with T1, KRAS G12D peptide on HLA-A*11:01 (human).
T1 peptide: VVVGADGVGK
Description: activation reporter or marker.

The target in assay [2] is T1, KRAS G12D peptide on HLA-A*11:01. Description: killing. The protocol: Red fluorescent Hpaf-II cells, a KRAS-G12D expressing tumor cell line transduced to express HLA-A11, were cocultured at 3:1 effector:target cell ratio with TCR32-transduced CD8⁺ T cells having wild type TRAC and TRBC loci or TCR32-transduced TRAC/TRBC double knockout (dKO) CD8⁺ T cells. Total red object integrated intensity (a measure of tumor cell volume) was evaluated over time. Red fluorescence was measured by live cell imaging using a life cell analysis system, the IncuCyte S3 microscope and software package. CD8⁺ T cell cytotoxicity is indicated by a decrease in the total red target cell area per well as compared to no treatment wells. Additional tumor cells were added at 72 and 140 hours to assess TCR-mediated tumor cell lysis by transduced T cells in the presence of persistent antigen. Reductions in tumor cells were observed when co-cultured with TCR-transduced cells (FIG. 2).

B1: TCR81 (TCR, V domains shown)
Valpha: AQTVTQSQPEMSVQEAETVTLSCTYDTSESDYYLFWYKQPPSRQMILVIRQEAYKQQNATENRFSVNFQKAAKSFSLKISDSQLGDAAMYFCAYCNPNAGKSTFGDGTTLTVKP
Vbeta: DVKVTQSSRYLVKRTGEKVFLECVQDMDHENMFWYRQDPGLGLRLIYFSYDVKMKEKGDIPEGYSVSREKKERFSLILESASTNQTSMYLCASSFRLREGLGEQFFGPGTRLTVL
In the case of B1, in assay [1], the binding result was “recognises”.

B2: TCR80 (TCR, V domains shown)
Valpha: AQTVTQSQPEMSVQEAETVTLSCTYDTSESDYYLFWYKQPPSRQMILVIRQEAYKQQNATENRFSVNFQKAAKSFSLKISDSQLGDAAMYFCASTLSSGDKLTFGTGTRLAVRP
Vbeta: EPEVTQTPSHQVTQMGQEVILRCVPISNHLYFYWYRQILGQKVEFLVSFYNNEISEKSEIFDDQFSVERPDGSNFTLKIRSTKLEDSAMYFCASSGVDRAYGYTFGSGTRLTVV
For the molecule B2, in assay [1], the binding result was “recognises”.

B3: TCR69 (TCR, V domains shown)
Valpha: TQLLEQSPQFLSIQEGENLTVYCNSSSVFSSLQWYRQEPGEGPVLLVTVVTGGEVKKLKRLTFQFGDARKDSSLHITAAQPGDTGLYLCAGKTTDSWGKLQFGAGTQVVVTP
Vbeta: EPEVTQTPSHQVTQMGQEVILRCVPISNHLYFYWYRQILGQKVEFLVSFYNNEISEKSEIFDDQFSVERPDGSNFTLKIRSTKLEDSAMYFCASSEWAGTEAFFGQGTRLTVV
Take B3: the binding result in assay [1] is given as “recognises”.

B4: TCR79 (TCR, V domains shown)
Valpha: QKEVEQNSGPLSVPEGAIASLNCTYSDRVSQSFFWYRQYSGKSPELIMSIYSNGDKEDGRFTAQLNKASQYVSLLIRDSQPSDSATYLCAVRWAGGTSYGKLTFGQGTILTVHP
Vbeta: DTGVSQDPRHKITKRGQNVTFRCDPISEHNRLYWYRQTLGQGPEFLTYFQNEAQLEKSRLLSDRFSAERPKGSFSTLEIQRTEQGDSAMYLCATPLGRTNEQFFGPGTRLTVL
Take B4: in assay [1], the binding result is “recognises”.

B5: TCR32 (TCR, V domains shown)
Valpha: AQTVTQSQPEMSVQEAETVTLSCTYDTSENNYYLFWYKQPPSRQMILVIRQEAYKQQNATENRFSVNFQKAAKSFSLKISDSQLGDTAMYFCAFMTPITQGGSEKLVFGKGTKLTVNP
Vbeta: ETGVTQSPTHLIKTRGQQVTLRCSSQSGHNTVSWYQQALGQGPQFIFQYYREEENGRGNFPPRFSGLQFPNYSSELNVNALELDDSALYLCASSDRGWNEQFFGPGTRLTVL
As for B5, the binding result in assay [2] was “recognises”.
